Here are results for 2 molecules from paper PMC9482650, “Quantitative fragmentomics allow affinity mapping of interactomes” (Nature Communications, 2022).

The chains are these.
T1: MPDZ_12, O75970
T1 sequence (O75970 1857-1958, limits assumed, looked up): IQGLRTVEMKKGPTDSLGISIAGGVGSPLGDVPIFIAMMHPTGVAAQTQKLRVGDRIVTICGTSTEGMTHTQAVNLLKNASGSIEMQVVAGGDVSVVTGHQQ

T2: PDZD7_1, Q9H5P4
T2 sequence (Q9H5P4 81-178, limits assumed, looked up): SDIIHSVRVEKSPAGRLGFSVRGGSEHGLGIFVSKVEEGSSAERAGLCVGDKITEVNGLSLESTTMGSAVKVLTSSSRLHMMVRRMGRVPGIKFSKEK

T3: MAGI2_1, Q86UL8
T3 sequence (Q86UL8 12-111, limits assumed, looked up): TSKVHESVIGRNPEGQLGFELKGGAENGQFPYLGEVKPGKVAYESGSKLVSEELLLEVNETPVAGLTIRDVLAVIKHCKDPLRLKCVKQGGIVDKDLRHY

T4: INTU, Q9ULD6
T4 sequence (Q9ULD6 180-273, limits assumed, looked up): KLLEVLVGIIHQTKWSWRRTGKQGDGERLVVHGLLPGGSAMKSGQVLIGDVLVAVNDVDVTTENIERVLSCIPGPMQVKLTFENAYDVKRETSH

T5: SHROOM3, Q8TF72
T5 sequence (Q8TF72 20-120, limits assumed, looked up): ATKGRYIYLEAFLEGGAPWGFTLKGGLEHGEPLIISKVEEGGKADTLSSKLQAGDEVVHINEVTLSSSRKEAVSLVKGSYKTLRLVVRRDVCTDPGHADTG

T6: MPP5, Q8N3R9
T6 sequence (Q8N3R9 251-346, limits assumed, looked up): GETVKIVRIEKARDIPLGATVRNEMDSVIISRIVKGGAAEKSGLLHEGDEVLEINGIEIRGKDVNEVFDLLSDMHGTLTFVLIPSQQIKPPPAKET

T7: RGS12, O14924
T7 sequence (O14924 17-108, limits assumed, looked up): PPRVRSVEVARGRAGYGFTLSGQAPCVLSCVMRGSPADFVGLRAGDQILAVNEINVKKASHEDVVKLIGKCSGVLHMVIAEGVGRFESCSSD

T8: PCLO, Q9Y6V0
T8 sequence (Q9Y6V0 4491-4600, limits assumed, looked up): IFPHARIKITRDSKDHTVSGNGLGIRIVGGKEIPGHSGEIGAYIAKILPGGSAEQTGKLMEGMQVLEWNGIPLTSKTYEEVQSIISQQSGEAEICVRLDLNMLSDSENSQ

T9: SHANK2, Q9UPX8
T9 sequence (Q9UPX8 621-730, limits assumed, looked up): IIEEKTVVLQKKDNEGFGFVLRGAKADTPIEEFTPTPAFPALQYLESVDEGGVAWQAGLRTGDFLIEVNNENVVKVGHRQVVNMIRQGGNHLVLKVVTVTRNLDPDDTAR

T10: SHROOM4, Q9ULL8
T10 sequence (Q9ULL8 5-102, limits assumed, looked up): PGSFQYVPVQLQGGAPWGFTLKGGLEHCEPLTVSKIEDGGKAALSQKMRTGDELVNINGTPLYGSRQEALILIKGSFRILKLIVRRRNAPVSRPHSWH

T11: MPDZ_2, O75970
T11 sequence (O75970 252-347, limits assumed, looked up): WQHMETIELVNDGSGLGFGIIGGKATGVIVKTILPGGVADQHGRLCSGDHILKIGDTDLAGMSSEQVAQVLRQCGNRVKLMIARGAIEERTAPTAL

T12: DVL1, O14640
T12 sequence (O14640 246-333, limits assumed, looked up): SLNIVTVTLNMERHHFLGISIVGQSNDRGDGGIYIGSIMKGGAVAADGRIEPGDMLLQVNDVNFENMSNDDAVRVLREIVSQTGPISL

Usually pKd stands for the negative decadic logarithm of the Kd, by convention in mol/L.

Chain of TJP1_3, Q07157 (Q07157 416-512): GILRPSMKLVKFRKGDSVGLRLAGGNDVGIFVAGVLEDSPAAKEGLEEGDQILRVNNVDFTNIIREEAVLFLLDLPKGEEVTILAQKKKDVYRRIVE
Chain of SCRIB_4, Q14160 (Q14160 1095-1204): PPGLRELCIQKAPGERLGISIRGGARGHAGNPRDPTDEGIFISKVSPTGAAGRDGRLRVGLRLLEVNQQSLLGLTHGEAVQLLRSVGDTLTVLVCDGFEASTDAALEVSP
Chain of PDZD9, Q8IXQ8 (Q8IXQ8 23-120): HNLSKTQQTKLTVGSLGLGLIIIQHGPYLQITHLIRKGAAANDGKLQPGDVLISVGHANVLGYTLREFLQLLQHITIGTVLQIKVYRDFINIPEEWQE
Chain of GRIP2_2, Q9C0E4 (Q9C0E4 137-245): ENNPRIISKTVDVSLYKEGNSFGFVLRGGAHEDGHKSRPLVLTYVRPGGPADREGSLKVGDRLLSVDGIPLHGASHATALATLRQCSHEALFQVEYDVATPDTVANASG
Chain of MAGI3_3, Q5TCQ9 (Q5TCQ9 572-655): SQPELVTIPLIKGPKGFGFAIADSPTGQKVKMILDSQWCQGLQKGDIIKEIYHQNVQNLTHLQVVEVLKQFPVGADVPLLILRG

In one assay the target is MAST3, O60307. Put plainly: holdup assay. Further details: key: below the threshold = too weak to quantify, mostly under pKd 3.1 to 4. As to conditions: plain residues with an end cap or a label only (N-terminal biotin on a linker: ttds).
Chain of MAST3, O60307 (O60307 945-1048): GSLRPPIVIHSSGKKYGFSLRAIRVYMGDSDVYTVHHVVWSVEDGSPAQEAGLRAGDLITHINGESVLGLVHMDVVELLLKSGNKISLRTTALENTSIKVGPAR
As to RPLPRKVSQL [DOCK4, Q8N1I0], the negative logarithm of the Kd (pKd) result was “below the threshold”.
As for SKPTRRETEV [HPV35-E6, P27228], the pKd entry is listed as “below the threshold”.

Another assay addresses T1, MPDZ_12, O75970. Put plainly: holdup assay. As to conditions: plain residues with an end cap or a label only (N-terminal biotin on a linker: ttds). On the set-up: key: below the threshold = too weak to quantify, mostly under pKd 3.1 to 4.
For RPLPRKVSQL [DOCK4, Q8N1I0], the pKd entry is “below the threshold”.
For SKPTRRETEV [HPV35-E6, P27228], the pKd result is “below the threshold”.

A further assay has as its target T2, PDZD7_1, Q9H5P4. The assay is described as follows: holdup assay. On the set-up: key: below the threshold = too weak to quantify, mostly under pKd 3.1 to 4. As to conditions: plain residues with an end cap or a label only (N-terminal biotin on a linker: ttds).
The molecule RPLPRKVSQL [DOCK4, Q8N1I0] yielded a pKd of 4.33.
Still for that read-out and setting: to SKPTRRETEV [HPV35-E6, P27228] belongs “below the threshold”.

The target of a further assay is PARD3_1, Q8TEW0. The assay is described as follows: holdup assay. On the set-up: key: below the threshold = too weak to quantify, mostly under pKd 3.1 to 4. As to conditions: plain residues with an end cap or a label only (N-terminal biotin on a linker: ttds).
Chain of PARD3_1, Q8TEW0 (Q8TEW0 264-372): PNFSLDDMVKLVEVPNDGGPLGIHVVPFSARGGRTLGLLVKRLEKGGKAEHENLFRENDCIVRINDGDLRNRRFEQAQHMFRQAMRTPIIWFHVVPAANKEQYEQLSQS
For RPLPRKVSQL [DOCK4, Q8N1I0], the pKd entry is listed as “below the threshold”.
For the molecule SKPTRRETEV [HPV35-E6, P27228], the pKd entry was “below the threshold”.

Another assay addresses T3, MAGI2_1, Q86UL8. Put plainly: holdup assay. On the set-up: key: below the threshold = too weak to quantify, mostly under pKd 3.1 to 4. As to conditions: plain residues with an end cap or a label only (N-terminal biotin on a linker: ttds).
For the molecule RPLPRKVSQL [DOCK4, Q8N1I0], the negative logarithm of the Kd (pKd) entry is reported as “below the threshold”.

The target in another assay is T4, INTU, Q9ULD6. Put plainly: holdup assay. As to conditions: plain residues with an end cap or a label only (N-terminal biotin on a linker: ttds). Further details: key: below the threshold = too weak to quantify, mostly under pKd 3.1 to 4.
As to SKPTRRETEV [HPV35-E6, P27228], the negative-log Kd (pKd) result was “below the threshold”.

Another assay addresses TJP1_3, Q07157. Put plainly: holdup assay. Further details: key: below the threshold = too weak to quantify, mostly under pKd 3.1 to 4. As to conditions: plain residues with an end cap or a label only (N-terminal biotin on a linker: ttds).
For the molecule RPLPRKVSQL [DOCK4, Q8N1I0], the negative logarithm of the Kd (pKd) entry is “below the threshold”.
The same measure, in the same setting: to SKPTRRETEV [HPV35-E6, P27228] belongs “below the threshold”.

The target of the next assay is Inadl_7, Q8NI35. The assay is described as follows: holdup assay. On the set-up: key: below the threshold = too weak to quantify, mostly under pKd 3.1 to 4. As to conditions: plain residues with an end cap or a label only (N-terminal biotin on a linker: ttds).
Chain of Inadl_7, Q8NI35 (Q8NI35 1219-1332): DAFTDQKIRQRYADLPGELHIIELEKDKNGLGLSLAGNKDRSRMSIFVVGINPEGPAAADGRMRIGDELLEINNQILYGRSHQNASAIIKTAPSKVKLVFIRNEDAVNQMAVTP
RPLPRKVSQL [DOCK4, Q8N1I0]: the negative-log Kd (pKd) stood at 4.45.
In the case of SKPTRRETEV [HPV35-E6, P27228], the pKd result is given as “below the threshold”.

A further assay concerns the target GRIP2_2, Q9C0E4. Put plainly: holdup assay. Further details: key: below the threshold = too weak to quantify, mostly under pKd 3.1 to 4. As to conditions: plain residues with an end cap or a label only (N-terminal biotin on a linker: ttds).
As to RPLPRKVSQL [DOCK4, Q8N1I0], the negative-log Kd (pKd) amounted to 4.25.

The next assay has as its target PDZD9, Q8IXQ8. The assay is described as follows: holdup assay. On the set-up: key: below the threshold = too weak to quantify, mostly under pKd 3.1 to 4. As to conditions: plain residues with an end cap or a label only (N-terminal biotin on a linker: ttds).
Turning to RPLPRKVSQL [DOCK4, Q8N1I0], the negative logarithm of the Kd (pKd) entry is on record as “below the threshold”.
SKPTRRETEV [HPV35-E6, P27228]: the pKd result is recorded as “below the threshold”.

The next assay has as its target T5, SHROOM3, Q8TF72. Put plainly: holdup assay. Further details: key: below the threshold = too weak to quantify, mostly under pKd 3.1 to 4. As to conditions: plain residues with an end cap or a label only (N-terminal biotin on a linker: ttds).
As for RPLPRKVSQL [DOCK4, Q8N1I0], the pKd entry was “below the threshold”.
Regarding SKPTRRETEV [HPV35-E6, P27228], the pKd result is recorded as “below the threshold”.

The next assay deals with T6, MPP5, Q8N3R9. The assay is described as follows: holdup assay. Further details: key: below the threshold = too weak to quantify, mostly under pKd 3.1 to 4. As to conditions: plain residues with an end cap or a label only (N-terminal biotin on a linker: ttds).
Consider RPLPRKVSQL [DOCK4, Q8N1I0], for which the pKd result is given as “below the threshold”.
Turning to SKPTRRETEV [HPV35-E6, P27228], the pKd entry was “below the threshold”.

The target in a further assay is T7, RGS12, O14924. Put plainly: holdup assay. Further details: key: below the threshold = too weak to quantify, mostly under pKd 3.1 to 4. As to conditions: plain residues with an end cap or a label only (N-terminal biotin on a linker: ttds).
On to RPLPRKVSQL [DOCK4, Q8N1I0], for which the pKd entry is recorded as “below the threshold”.
Regarding SKPTRRETEV [HPV35-E6, P27228], the pKd result is listed as “below the threshold”.

The target of another assay is T8, PCLO, Q9Y6V0. The assay is described as follows: holdup assay. Further details: key: below the threshold = too weak to quantify, mostly under pKd 3.1 to 4. As to conditions: plain residues with an end cap or a label only (N-terminal biotin on a linker: ttds).
RPLPRKVSQL [DOCK4, Q8N1I0]: the pKd entry is “below the threshold”.
SKPTRRETEV [HPV35-E6, P27228]: the pKd result was “below the threshold”.

A further assay deals with T9, SHANK2, Q9UPX8. The assay is described as follows: holdup assay. On the set-up: key: below the threshold = too weak to quantify, mostly under pKd 3.1 to 4. As to conditions: plain residues with an end cap or a label only (N-terminal biotin on a linker: ttds).
Take RPLPRKVSQL [DOCK4, Q8N1I0]: the pKd entry is on record as “below the threshold”.
Turning to SKPTRRETEV [HPV35-E6, P27228], the pKd result is reported as “below the threshold”.

The next assay deals with T10, SHROOM4, Q9ULL8. Put plainly: holdup assay. On the set-up: key: below the threshold = too weak to quantify, mostly under pKd 3.1 to 4. As to conditions: plain residues with an end cap or a label only (N-terminal biotin on a linker: ttds).
On to RPLPRKVSQL [DOCK4, Q8N1I0], for which the pKd result is listed as “below the threshold”.
For SKPTRRETEV [HPV35-E6, P27228], the pKd entry is on record as “below the threshold”.

The target of another assay is T11, MPDZ_2, O75970. Put plainly: holdup assay. Further details: key: below the threshold = too weak to quantify, mostly under pKd 3.1 to 4. As to conditions: plain residues with an end cap or a label only (N-terminal biotin on a linker: ttds).
On to RPLPRKVSQL [DOCK4, Q8N1I0], for which the pKd result is listed as “below the threshold”.
In the case of SKPTRRETEV [HPV35-E6, P27228], the pKd result is on record as “below the threshold”.

For a further assay, the target named is NHERF4_3, Q86UT5. Put plainly: holdup assay. On the set-up: key: below the threshold = too weak to quantify, mostly under pKd 3.1 to 4. As to conditions: plain residues with an end cap or a label only (N-terminal biotin on a linker: ttds).
Chain of NHERF4_3, Q86UT5 (Q86UT5 325-412): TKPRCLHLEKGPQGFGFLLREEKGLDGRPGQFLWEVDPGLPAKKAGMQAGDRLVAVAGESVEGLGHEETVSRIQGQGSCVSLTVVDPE
As for RPLPRKVSQL [DOCK4, Q8N1I0], the pKd worked out at 4.21.
Molecule SKPTRRETEV [HPV35-E6, P27228] came in with a pKd of 3.78.

The target in a further assay is MAGI3_5, Q5TCQ9. The assay is described as follows: holdup assay. On the set-up: key: below the threshold = too weak to quantify, mostly under pKd 3.1 to 4. As to conditions: plain residues with an end cap or a label only (N-terminal biotin on a linker: ttds).
Chain of MAGI3_5, Q5TCQ9 (Q5TCQ9 847-941): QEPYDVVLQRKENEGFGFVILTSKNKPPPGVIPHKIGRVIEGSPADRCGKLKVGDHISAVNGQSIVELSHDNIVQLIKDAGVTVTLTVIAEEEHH
In the case of RPLPRKVSQL [DOCK4, Q8N1I0], the pKd result is listed as “below the threshold”.
Take SKPTRRETEV [HPV35-E6, P27228]: the pKd entry was “below the threshold”.

A further assay has as its target MAGI3_3, Q5TCQ9. Put plainly: holdup assay. Further details: key: below the threshold = too weak to quantify, mostly under pKd 3.1 to 4. As to conditions: plain residues with an end cap or a label only (N-terminal biotin on a linker: ttds).
Consider RPLPRKVSQL [DOCK4, Q8N1I0], for which the pKd result is reported as “below the threshold”.

The next assay has as its target SCRIB_4, Q14160. Put plainly: holdup assay. Further details: key: below the threshold = too weak to quantify, mostly under pKd 3.1 to 4. As to conditions: plain residues with an end cap or a label only (N-terminal biotin on a linker: ttds).
Turning to RPLPRKVSQL [DOCK4, Q8N1I0], the pKd result is on record as “below the threshold”.
Molecule SKPTRRETEV [HPV35-E6, P27228] yielded a pKd of 3.78.

The next assay addresses T12, DVL1, O14640. The assay is described as follows: holdup assay. Further details: key: below the threshold = too weak to quantify, mostly under pKd 3.1 to 4. As to conditions: plain residues with an end cap or a label only (N-terminal biotin on a linker: ttds).
Take RPLPRKVSQL [DOCK4, Q8N1I0]: the pKd result is listed as “below the threshold”.
Consider SKPTRRETEV [HPV35-E6, P27228], for which the pKd entry is “below the threshold”.

The target of the next assay is RGS3, P49796-9. The assay is described as follows: holdup assay. On the set-up: key: below the threshold = too weak to quantify, mostly under pKd 3.1 to 4. As to conditions: plain residues with an end cap or a label only (N-terminal biotin on a linker: ttds).
Chain of RGS3, P49796-9 (P49796 other isoform, or with tags, fused parts or gaps): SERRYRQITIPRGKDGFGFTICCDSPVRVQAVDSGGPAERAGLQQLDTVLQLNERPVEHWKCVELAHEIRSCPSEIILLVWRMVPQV
For the molecule RPLPRKVSQL [DOCK4, Q8N1I0], the pKd result was “below the threshold”.
In the case of SKPTRRETEV [HPV35-E6, P27228], the pKd entry is “below the threshold”.
